What was measured:
[1] = molecular target: T1, substrate peptide 2: 2Abz-SLGRKIQ-Lys(Dnp)-NH2
T1 chain: SLGRKIQ

[2] = molecular target: T2, substrate peptide 3: 2Abz-GYLGRSYKVG-Lys(Dnp)D-OH (not fully specified)
T2 chain: GYLGRSYKVG

[3] = molecular target: T3, substrate peptide 1: 2Abz-GLQRALEI-Lys(Dnp)-NH2
T3 chain: GLQRALEI

B1: double-stranded activated C1s protein (protein)
chain 1: EPTMYGEILSPNYPQAYPSEVEKSWDIEVPEGYGIHLYFTHLDIELSENCAYDSVQIISGDTEEGRLCGQRSSNNPHSPIVEEFQVPYNKLQVIFKSDFSNEERFTGFAAYYVATDINECTDFVDVPCSHFCNNFIGGYFCSCPPEYFLHDDMKNCGVNCSGDVFTALIGEIASPNYPKPYPENSRCEYQIRLEKGFQVVVTLRREDFDVEAADSAGNCLDSLVFVAGDRQFGPYCGHGFPGPLNIETKSNALDIIFQTDLTGQKKGWKLRYHGDPMPCPKEDTPNSVWEPAKAKYVFRDVVQITCLDGFEVVEGRVGATSFYSTCQSNGKWSNSKLKCQPVDCGIPESIENGKVEDPESTLFGSVIRYTCEEPYYYMENGGGGEYHCAGNGSWVNEVLGPELPKCVPVCGVPREPFEEKQR
chain 2: IIGGSDADIKNFPWQVFFDNPWAGGALINEYWVLTAAHVVEGNREPTMYVGSTSVQTSRLAKSKMLTPEHVFIHPGWKLLEVPEGRTNFDNDIALVRLKDPVKMGPTVSPICLPGTSSDYNLMDGDLGLISGWGRTEKRDRAVRLKAARLPVAPLRKCKEVKVEKPTADAEAYVFTPNMICAGGEKGMDSCKGDSGGAFAVQDPNDKTKFYAAGLVSWGPQCGTYGLYTRVKNYVDWIMKTMQENSTPRED
Kcat/Km [1]: 1.45 | Kcat/Km [2]: 15.4 | Kcat/Km [3]: 1.67

Source: patent publication US20250012721
